Source: patent publication US8138140B2, “Self-assembling peptide amphiphiles and related methods for growth factor delivery” (Northwestern University, priority 2003, dated 2012)
Ends that are not written are not given here. Peptide text beside a SMILES is read from it. * marks the point of attachment. Palmitoyl = CCCCCCCCCCCCCCCC(=O)*; NH(CH2)11CH3 = CCCCCCCCCCCCN*

Legend:
[1] = Acid-base (pKa) titrations of PA aggregates; details: 3 mM, aggregated state
Experimental: Acid-Base titrations. pKa titrations were preformed on PAs 1-4 in the range of pH 2-10 with a Fisher Accumet pH meter at a concentration of 3.5 mg/mL in 100 mM KCl. For the acidic PAs 2 and 4, 0.1N KOH was added in 1-5 μL increments, starting at low pH, whereas for the basic PAs 1 and 3, 0.1N HCl was added in 1-5 μL increments, starting at a high pH.
pKa titrations of aggregates of molecules 1-4 were carried out at a concentration of 3 mM. All titrations were started at a pH where the molecules were already in their aggregated state in order to avoid kinetic effects due to self-assembly.

rh-TGF-β1 = target: T1, rh-TGF-β1 (Homo sapiens, UniProt P01137); assay: ELISA screening of phage display clones, relative binding strengths; parameters: key to relative binding strength of selected clone (numeric coding): highest (1); 2: in decreasing binding strength from highest (1) to lowest (4); 3: in decreasing binding strength from highest (1) to lowest (4); lowest (4); details: for relative binding strength of selected clone (numeric coding): TGF-β1 coated plates, ELISA
T1 construct: purchased Peprotech
T1 sequence (P01137 279-390 limits assumed): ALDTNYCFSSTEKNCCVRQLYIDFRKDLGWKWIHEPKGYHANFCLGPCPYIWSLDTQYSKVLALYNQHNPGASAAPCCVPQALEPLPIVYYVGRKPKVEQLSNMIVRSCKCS
Source text: (§1) Phage display is typically used to find receptor-blocking peptides, i.e. sequences with high binding constants. To transfer a growth factor from the PA binding site to the cell receptor, an extremely high binding constant is not required and might even be unfavorable. Therefore, the 7-mer commercial phage library was elected over the […], aiming at intermediate binding strengths. Growth factors were physisorbed onto 96-well plates and subsequently exposed to the phage library. After incubation at room temperature for 60 minutes, the unbound phage was removed by rinsing with detergent solution. Bound phage was subsequently eluted by incubating with a growth factor solution for 60 minutes. The recovered phages were amplified for 4 h in E Coli at 37° C. and the panning was repeated two more times. In subsequent panning rounds, the stringency was increased by raising the detergent concentration and reducing the exposure time to the library. The final phage population was plated and the DNA of 10 clones of colonies containing only one phage type were sequenced. Next, ELISA screening was used to test for false positives and determine relative binding strengths of the selected clones. […] (See Table 1, below.)
(§2) Phage display was performed with the Ph.D. 7 kit (New England […]). Fifty microliters of diluted M13-phage library (containing 2×10^9 phages and all possible 7-mer sequences) were added to 96-well microtiter plates, which had been exposed to 50 μl 10 μg/ml growth factor (peprotech) solution for 18 h at 0° C. The plates were blocked for 1 h then incubated at room temperature for 60 minutes with gentle agitation. Unbound phage was removed by rinsing with TBS/Tween-20 (0.1% v/v Tween-20). Bound phage was subsequently eluted by incubating with 50 μl growth factor solution for 60 minutes. The presence of binding phage was determined by serial dilution of the phages and subsequent plating with E. Coli on agar plates. The number of plaques formed can be related to the number of phages in the original mixture. The phages were subsequently amplified for 4 h in E. Coli at 37° C. In subsequent panning rounds, the concentration of Tween-20 was raised to 0.5% and the binding and elution times were decreased and increased, respectively, to increase the stringency of the selection process. After three rounds of panning, the recovered phage mixture is diluted and plated with bacteria on agar. Subsequently, plaques are isolated containing a single DNA sequence. After purification, ten clones were sequenced. Next, ELISA screening was used to eliminate false positives and determine relative binding strengths of the selected clones. Each clone was incubated for 1 h on growth factor coated microtiter plates, the plates were rinsed with TBS/Tween-20 and subsequently HRP-conjugated anti-M13 antibody (Amersham Biosciences) was incubated for 1 h. After addition of ABTS, the absorbance at 450 nm was measured after 30 minutes to determine the relative binding strengths of the isolated clones. The strongest binder was subsequently selected.

mesenchymal stem cells = assay: Mesenchymal stem cells cultured in PA gels with TGF-β1, lineage markers; assay type: cell-based, Human; details: TGF-β1 up to 20 ng/ml, 10 days
rh-BMP-2 = target: T2, rh-BMP-2 (Homo sapiens, UniProt P12643); assay: ELISA screening of phage display clones, relative binding strengths; parameters: key to relative binding strength of selected clone (numeric coding): highest (1); 2: in decreasing binding strength from highest (1) to lowest (4); 3: in decreasing binding strength from highest (1) to lowest (4); lowest (4); details: for relative binding strength of selected clone (numeric coding): BMP-2 coated plates, ELISA
T2 construct: purchased Peprotech
T2 sequence (P12643 283-396): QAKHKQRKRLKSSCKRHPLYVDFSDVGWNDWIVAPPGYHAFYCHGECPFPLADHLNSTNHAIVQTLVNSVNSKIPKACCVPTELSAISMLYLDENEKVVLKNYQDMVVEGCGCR
Source text: as §1, §2

[2] = system: vascular endothelial growth factor (VEGF); assay: Phage display binding sequences (12-mer kit); parameters: key: * denotes the strongest binders; details: 12-mer phage display kit
Experimental: (§3) Numerous binding sequences were determined for vascular endothelial growth factor (VEGF), both with 7- and 12-mer phage display kit, basic fibroblast growth factor (FGF-2), neurotrophin-3 (NT-3) and laminin-5; * denotes the strongest binders: […]

laminin-5 = assay: Phage display binding sequences; parameters: key: * denotes the strongest binders
Experimental: as §3

[3] = phage display and ELISA screening

Molecule | relative binding strength of selected clone (numeric coding) (rh-TGF-β1) | relative binding strength of selected clone (numeric coding) (rh-BMP-2) | other results
CCCCCCCCCCCCCCCC(=O)N[C@H](C(=O)N[C@H](C(=O)N[C@H](C(=O)N[C@@H](C)C(=O)N[C@@H](C)C(=O)N[C@@H](C)C(=O)N[C@@H](CCC(=O)O)C(=O)N[C@@H](CCC(=O)O)C(=O)N[C@@H](CCC(=O)O)C(=O)O)C(C)C)C(C)C)C(C)C [PA 2] (Palmitoyl-VVVAAAEEE-OH) | – | – | apparent pKa of aggregates (titration curve) [1]: complex curves with transitions occurring over wide ranges
Asp(CONHC12)-Val-Val-Val-Ala-Ala-Ala-Glu-Glu-Glu-NH2 (D(NH(CH2)11CH3)VVVAAAEEE-NH2; N-terminus assumed; SMILES CCCCCCCCCCCCNC(=O)C[C@H](N)C(=O)N[C@H](C(=O)N[C@H](C(=O)N[C@H](C(=O)N[C@@H](C)C(=O)N[C@@H](C)C(=O)N[C@@H](C)C(=O)N[C@@H](CCC(=O)O)C(=O)N[C@@H](CCC(=O)O)C(=O)N[C@@H](CCC(=O)O)C(N)=O)C(C)C)C(C)C)C(C)C) [PA 4] | – | – | apparent pKa of aggregates (titration curve) [1]: complex curves with transitions occurring over wide ranges
Asp(CONHC12)-Val-Val-Val-Ala-Ala-Ala-Lys-Lys-Lys-Ser-Gly-Gly-G-ly-Leu-Pro-Leu-Gly-Gln-Ser-His-NH2 [PA 10] | – | – | Collagen II expression (mesenchymal stem cells): higher for the binding gels; α-smooth muscle actin expression (mesenchymal stem cells): higher in the binding gels than in the nonbinding gels
DVSPAYH | – | DVSPAYH (3) | –
KVPPANT | – | KVPPANT (3) | –
LPLGNSH | LPLGNSH (1) | – | binding to TGF-β1 (in words) (rh-TGF-β1; [3]): best binding epitope
PFDPPVR | – | PFDPPVR (2) | –
PIQPDER | – | PIQPDER (2) | –
PLTPSALLPIFE | – | – | strongest binders [2]: PLTPSALLPIFE*
PTPLKVRLHSYN | – | – | strongest binders [2]: PTPLKVRLHSYN*
QQTQAQH | – | QQTQAQH (4) | –
RYHPHLH | – | – | strongest binders (laminin-5): RYHPHLH*
VSILSTIPNSMT | – | – | strongest binders [2]: VSILSTIPNSMT*

The next lines start with results.

relative binding strength of selected clone (numeric coding) (rh-TGF-β1) | relative binding strength of selected clone (numeric coding) (rh-BMP-2) | Molecule | other results
AWKSVTA (3) | – | AWKSVTA | –
GKYPPTS (3) | – | GKYPPTS | –
– | KQALTQT (3) | KQALTQT | –
– | LHYPFMT (3) | LHYPFMT | –
LPSPIQK (2) | – | LPSPIQK | –
LRNYSHS (3) | – | LRNYSHS | –
PAPRWIH (3) | – | PAPRWIH | –
– | PGPTVQG (2) | PGPTVQG | –
RTTSPTA (3) | – | RTTSPTA | –
RVSTWDT (3) | – | RVSTWDT | –
VYRHLPT (2) | – | VYRHLPT | –
– | WPALFTH (3) | WPALFTH | –
– | YPVHPST (1) | YPVHPST | binding to BMP-2 (in words) (rh-BMP-2; [3]): best binding epitope
